Results published in US5543312A, “Pastuerella haemolytica glycoprotease gene and the purified enzyme” (priority 1991, dated 1996).

Tests used:
[1] = biological target: P. haemolytica A1 protease (Mannheimia haemolytica, UniProt P36175); type: biochemical; conditions: FIG. 9; SDS-PAGE autoradiography
[2] = system: P. haemolytica glycoprotease; test: Cleavage of cell surface antigens of surface-125I-iodinated KG1a cells, immunoprecipitation and SDS-PAGE; type: cell-based
From the text: In our previous work, we have concentrated on the cleavage of human erythrocyte glycophorin A by the P. haemolytica glycoprotease Udoh et al. 1986. Univ. of Guelph; Abdullah et al. 1988. Proc. Canad. Fed. Biol. Socs.; Abdullah et al. 1990. Biochem. Soc. Trans. This substrate is well-characterized erythrocyte surface O-sialoglycoprotein and is readily available for biochemical analysis. However, it is clear that the physiological targets of this enzyme are not erthrocyte antigens but are probably O-sialoglycoproteins on the surfaces of leukocytes or endothelial cells. SDS-PAGE analysis of immunoprecipitations performed with specific monoclonal antibodies on lysates of surface-^125 I-iodinated KG1a cells, a primitive myeloid/T-lymphois stem cell line Koeffler et al. 1977. Science 200, have shown that the O-sialoglycoprotein cell surface antigens CD34 Civin et al. 1989. Leucocyte Typing IV, Oxford Univ. Press. CD43/leucosialin Killeen et al. 1987. EMBO J.; Pallant et al. 1989. PNAS, CD44/lyaluronic acid receptor Stamenkovic et al. 1989. Cell; Aruffo et al. 1990. Cell and CD45/leucocyte common antigen Thomas et al. 1989. Annu. REv. Immunol.; Pulido et al. 1989. J. Immunol. are all cleaved by the glycoprotease. Although the glycoprotease-sensitive structures contain some N-linked glycans they are all extensively glycosylated with O-linked carbohydrates. However, the N-linked glycoproteins CD18/11^a, 11^b, 11^c /leukocyte integrins Arnaout et al. 1990. Blood, CD71/transferrin receptor Shae et al. 1986. Cell, HLA class I Owen et al. 1980. J. Biol. Chem., and 8A3 antigens Sutherland et al. Blood (in press, Jan. 1991), which lack O-sialo-residues, were resistant to the action of the enzyme.

[3] = system: P. haemolytica glycoprotease; test: Removal of CD34 epitopes on KG1/KG1a cells (fluorescence microscopy, flow cytometry, western blotting); type: cell-based
From the text: Blood; Katz et al. 1985. Leuk. Res. which detects a sialic acid-dependent epitope on this glycoprotein Watt et al. 1987. Leukaemia; and Sutherland et al. 1988. Leukaemia. We have assessed the ability of this enzyme to remove CD34 epitopes recognized by all seven CD34 antibodies designated by the 4th Leucocyte Antigen Workshop Civin et al. 1989. Leukocyte Typing IV, Oxford Univ. Press. We have shown by fluorescence microscopy, quantitative flow cytometry and western blotting, that sialic acid-dependent epitopes, recognized by antibodies B1.3C5, MY10 Civin et al. 1984. J. Immunol. and 12.8 Andrews et la. 1986. […] Leukaemia and 188.24 Sutherland et al. Leukaemia. In contrast, the sialic acid-independent epitopes by 115.2 Andrew et al. 1986. Blood and TUK3 Civin et al. 1989. Leucocyte Typing IV, Oxford Univ. […] As previously for the cleavage of glycophorin, the enzyme requires the presence of sialyted residues on its substrate and the prior treatment of KGla cells with neuraminidase reduced the ability of the glycoprotease to cleave the ICH3 and 188.24 epitopes Sutherland et al. 1990. Blood (in press). The differential sensitivity of certain CD34 epitopes to cleavage with either neuraminidase and/or glycoprotease establishes 3 classes of epitopes:(Class 1) those like MY 10,B1.3C5 and 12.8 which are removed both by neuraminidase and by the glycoprotease;(Class II) those like ICH3 and 188.24 which are removed only by the glycoprotease; (Class III) those like TUK3 and 115.2

B1: glycophorin A: major sialoglycopeptide of the human erythrocyte membrane (protein, UniProt P02724 20-150, looked up)
Glycophorin-A: LSTTEVAMHTSTSSSVTKSYISSQTNDTHKRDTYAATPRAHEVSEISVRTVYPPEEETGERVQLAHHFSEPEITLIIFGVMAGVIGTILLISYGIRRLIKKSPSDVKPLPSPDTDVPLSSVEIENPETSDQ
- Hydrolysis of [125I]-glycophorin A forms by P. haemolytica A1 pH 4.5 fraction [1]: total hydrolysis

B2: CD34: O-sialoglycoprotein cell surface antigen, primitive bone marrow stem cell antigen (protein, UniProt P28906 32-385, looked up)
Hematopoietic progenitor cell …: SLDNNGTATPELPTQGTFSNVSTNVSYQETTTPSTLGSTSLHPVSQHGNEATTNITETTVKFTSTSVITSVYGNTNSSVQSQTSVISTVFTTPANVSTPETTLKPSLSPGNVSDLSTTSTSLATSPTKPYTSSSPILSDIKAEIKCSGIREVKLTQGICLEQNKTSSCAEFKKDRGEGLARVLCGEEQADADAGAQVCSLLLAQSEVRPQCLLLVLANRTEISSKLQLMKKHQSDLKKLGILDFTEQDVASHQSYSQKTLIALVTSGALLAVLGITGYFLMNRRSWSPTGERLGEDPYYTENGGGQGYSSGPGTSPEAQGKASVNRGAQENGTGQATSRNGHSARQHVVADTEL
- Cleavage of cell surface antigen by the glycoprotease [2]: cleaved
- Removal of sialic acid-dependent epitopes recognized by antibodies B1.3C5, MY10 and 12.8 [3]: totally removed
- Removal of sialic acid-independent epitopes recognized by ICH3 and 188.24 [3]: totally removed
- Sensitivity of sialic acid-independent epitopes recognized by 115.2 and TUK3 [3]: totally resistant
- Cleavage of CD34, loss of reactivity with anti-CD34 monoclonal antibody B1.3C5 ([3]; KG1 cells): readily cleaved

B3: CD43/leucosialin: O-sialoglycoprotein cell surface antigen, leukosialin/sialophorin (protein)
chain: STTAVQTPTSGEPLVSTSEPLSSKMYTTSITSDPKADSTGDQTSALPPSTSINEGSPLWTSIGASTGSPLPEPTTYQEVSIKMSSVPQETPHATSHPAVPITANSLGSHTVTGGTITTNSPETSSRTSGAPVTTAASSLETSRGTSGPPLTMATVSLETSKGTSGPPVTMATDSLETSTGTTGPPVTMTTGSLEPSSGASGPQVSSVKLSTMMSPTTSTNASTVPFRNPDENSRGMLPVAVLVALLAVIVLVALLLLWRRRQKRRTGALVLSRGGKRNGVVDAWAGPAQVPEEGAVTVTVGGSGGDKGSGFPDGEGSSRRPTLTTFFGRRKSRQGSLAMEELKSGSGPSLKGEEEPLVASEDGAVDAPAPDEPEGGDGAAP
modifications: O-sialoglycosylated
- Cleavage of cell surface antigen by the glycoprotease [2]: cleaved

B4: CD45/leucocyte common antigen: O-sialoglycoprotein cell surface antigen, leukocyte common antigen (protein)
chain: QSPTPSPTGLTTAKMPSVPLSSDPLPTHTTAFSPASTFERENDFSETTTSLSPDNTSTQVSPDSLDNASAFNTTGVSSVQTPHLPTHADSQTPSAGTDTQTFSGSAANAKLNPTPGSNAISDVPGERSTASTFPTDPVSPLTTTLSLAHHSSAALPARTSNTTITANTSDAYLNASETTTLSPSGSAVISTTTIATTPSKPTCDEKYANITVDYLYNKETKLFTAKLNVNENVECGNNTCTNNEVHNLTECKNASVSISHNSCTAPDKTLILDVPPGVEKFQLHDCTQVEKADTTICLKWKNIETFTCDTQNITYRFQCGNMIFDNKEIKLENLEPEHEYKCDSEILYNNHKFTNASKIIKTDFGSPGEPQIIFCRSEAAHQGVITWNPPQRSFHNFTLCYIKETEKDCLNLDKNLIKYDLQNLKPYTKYVLSLHAYIIAKVQRNGSAAMCHFTTKSAPPSQVWNMTVSMTSDNSMHVKCRPPRDRNGPHERYHLEVEAGNTLVRNESHKNCDFRVKDLQYSTDYTFKAYFHNGDYPGEPFILHHSTSYNSKALIAFLAFLIIVTSIALLVVLYKIYDLHKKRSCNLDEQQELVERDDEKQLMNVEPIHADILLETYKRKIADEGRLFLAEFQSIPRVFSKFPIKEARKPFNQNKNRYVDILPYDYNRVELSEINGDAGSNYINASYIDGFKEPRKYIAAQGPRDETVDDFWRMIWEQKATVIVMVTRCEEGNRNKCAEYWPSMEEGTRAFGDVVVKINQHKRCPDYIIQKLNIVNKKEKATGREVTHIQFTSWPDHGVPEDPHLLLKLRRRVNAFSNFFSGPIVVHCSAGVGRTGTYIGIDAMLEGLEAENKVDVYGYVVKLRRQRCLMVQVEAQYILIHQALVEYNQFGETEVNLSELHPYLHNMKKRDPPSEPSPLEAEFQRLPSYRSWRTQHIGNQEENKSKNRNSNVIPYDYNRVPLKHELEMSKESEHDSDESSDDDSDSEEPSKYINASFIMSYWKPEVMIAAQGPLKETIGDFWQMIFQRKVKVIVMLTELKHGDQEICAQYWGEGKQTYGDIEVDLKDTDKSSTYTLRVFELRHSKRKDSRTVYQYQYTNWSVEQLPAEPKELISMIQVVKQKLPQKNSSEGNKHHKSTPLLIHCRDGSQQTGIFCALLNLLESAETEEVVDIFQVVKALRKARPGMVSTFEQYQFLYDVIASTYPAQNGQVKKNNHQEDKIEFDNEVDKVKQDANCVNPLGAPEKLPEAKEQAEGSEPTSGTEGPEHSVNGPASPALNQGS
modifications: O-sialoglycosylated
- Cleavage of cell surface antigen by the glycoprotease [2]: cleaved
